Measured values published in patent US20180155407A1 (Sanofi, published 2018).
Numbered stars: 1 amine (or outer) side, 2 acyl side, 3 side chain; on linkers, the order of the positions; unused ones are H or OH. Square brackets hold non-standard residues; d marks the D form. Side chains are listed from the residue outwards. Ends that are not written are not given here. * marks the point of attachment. γGlu = O=C(O)[C@H](CCC(=O)[*:2])N[*:1]; Palmitoyl = CCCCCCCCCCCCCCCC(=O)*; Aib = CC(C)(N)C(=O)O

B1: SEQ ID NO: 7 (peptide)
peptide: H[Aib]QGTFTSDLSKLK([γGlu-γGlu-Palmitoyl])EKQRQ[Aib]EFIEWLKA[dA]GPPS[Aib]KPPPK-NH2
modifications: N-terminus assumed
SMILES: CCCCCCCCCCCCCCCC(=O)N[C@@H](CCC(=O)N[C@@H](CCC(=O)NCCCC[C@H](NC(=O)[C@H](CC(C)C)NC(=O)[C@H](CCCCN)NC(=O)[C@H](CO)NC(=O)[C@H](CC(C)C)NC(=O)[C@H](CC(=O)O)NC(=O)[C@H](CO)NC(=O)[C@@H](NC(=O)[C@H](Cc1ccccc1)NC(=O)[C@@H](NC(=O)CNC(=O)[C@H](CCC(N)=O)NC(=O)C(C)(C)NC(=O)[C@@H](N)Cc1c[nH]cn1)[C@@H](C)O)[C@@H](C)O)C(=O)N[C@@H](CCC(=O)O)C(=O)N[C@@H](CCCCN)C(=O)N[C@@H](CCC(N)=O)C(=O)N[C@@H](CCCNC(=N)N)C(=O)N[C@@H](CCC(N)=O)C(=O)NC(C)(C)C(=O)N[C@@H](CCC(=O)O)C(=O)N[C@@H](Cc1ccccc1)C(=O)N[C@H](C(=O)N[C@@H](CCC(=O)O)C(=O)N[C@@H](Cc1c[nH]c2ccccc12)C(=O)N[C@@H](CC(C)C)C(=O)N[C@@H](CCCCN)C(=O)N[C@@H](C)C(=O)N[C@H](C)C(=O)NCC(=O)N1CCC[C@H]1C(=O)N1CCC[C@H]1C(=O)N[C@@H](CO)C(=O)NC(C)(C)C(=O)N[C@@H](CCCCN)C(=O)N1CCC[C@H]1C(=O)N1CCC[C@H]1C(=O)N1CCC[C@H]1C(=O)N[C@@H](CCCCN)C(N)=O)[C@@H](C)CC)C(=O)O)C(=O)O

Assays:
Test in all cases: cell-based or functional assay
[1] = target: human GLP-1 receptor (human) (UniProt P43220)
human GLP-1 receptor (human), sequence (P43220 24-463): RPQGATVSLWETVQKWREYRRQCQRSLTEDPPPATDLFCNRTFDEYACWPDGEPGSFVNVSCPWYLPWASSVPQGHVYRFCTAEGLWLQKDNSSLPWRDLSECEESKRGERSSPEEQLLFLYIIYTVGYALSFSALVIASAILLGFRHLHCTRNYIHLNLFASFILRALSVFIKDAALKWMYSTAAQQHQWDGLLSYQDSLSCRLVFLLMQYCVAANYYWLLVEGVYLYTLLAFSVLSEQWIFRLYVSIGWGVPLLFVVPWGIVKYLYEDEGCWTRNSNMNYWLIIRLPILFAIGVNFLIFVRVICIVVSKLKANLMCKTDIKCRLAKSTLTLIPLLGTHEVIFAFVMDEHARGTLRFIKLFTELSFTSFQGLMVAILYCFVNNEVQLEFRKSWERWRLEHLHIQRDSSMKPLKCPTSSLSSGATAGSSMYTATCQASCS

[2] = target: human glucagon receptor (human) (UniProt P47871)
human glucagon receptor (human), sequence (P47871 26-477): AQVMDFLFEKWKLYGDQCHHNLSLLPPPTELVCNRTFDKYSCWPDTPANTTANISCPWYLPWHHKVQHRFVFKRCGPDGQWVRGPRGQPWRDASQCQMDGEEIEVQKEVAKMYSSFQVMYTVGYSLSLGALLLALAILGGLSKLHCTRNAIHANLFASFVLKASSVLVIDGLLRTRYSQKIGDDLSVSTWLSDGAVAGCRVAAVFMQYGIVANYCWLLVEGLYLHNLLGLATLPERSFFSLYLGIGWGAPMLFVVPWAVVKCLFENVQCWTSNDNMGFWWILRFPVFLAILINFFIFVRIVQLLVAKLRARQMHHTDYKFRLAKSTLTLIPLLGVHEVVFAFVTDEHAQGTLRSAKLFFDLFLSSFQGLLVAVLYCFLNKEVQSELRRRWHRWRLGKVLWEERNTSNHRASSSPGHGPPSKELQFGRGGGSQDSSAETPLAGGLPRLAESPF

human GLP-1 receptor = human GLP-1 receptor (human, UniProt P43220 24-463)
human glucagon receptor = human glucagon receptor (human, UniProt P47871 26-477)
human glucagon receptor, sequence (P47871 26-477): as above

human GIP receptor = target: T1, human GIP receptor (human, UniProt P48546 22-466)
T1 sequence (looked up): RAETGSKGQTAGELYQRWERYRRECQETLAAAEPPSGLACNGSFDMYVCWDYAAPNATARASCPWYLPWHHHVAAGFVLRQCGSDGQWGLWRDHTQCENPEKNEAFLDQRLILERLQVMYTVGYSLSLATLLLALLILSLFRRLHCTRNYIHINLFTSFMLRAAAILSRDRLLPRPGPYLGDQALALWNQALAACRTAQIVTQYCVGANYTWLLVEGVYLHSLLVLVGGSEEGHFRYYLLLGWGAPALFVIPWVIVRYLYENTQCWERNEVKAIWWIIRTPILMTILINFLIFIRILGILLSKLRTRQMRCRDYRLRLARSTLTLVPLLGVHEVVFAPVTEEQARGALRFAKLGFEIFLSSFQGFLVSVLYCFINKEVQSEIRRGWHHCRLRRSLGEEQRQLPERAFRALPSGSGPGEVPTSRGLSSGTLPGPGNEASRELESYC

Row | Molecule | EC50 hGLP-1R [pM] (cAMP formation) [1] | EC50 hGlucagon R [pM] (cAMP formation) [2] | EC50 hGLP-1R (cAMP formation) (human GLP-1 receptor) [pM] | EC50 hGlucagon R (cAMP formation) (human glucagon receptor) [pM] | EC50 hGIP R (cAMP formation) (human GIP receptor) [pM]
1 | exendin-4 (peptide) | 0.4 | > 1e+07 |  |  | 
2 | B1 |  |  | 4 | 21.8 | 14.2
